# Laboratory results as given in the supplement of paper PMC9732359.
# ± gives the uncertainty stated by the source.
# Experiment: protein stability index of a GFP-peptide fusion (yeast GPS) (PSI 1-4); higher = more stable; sorted into four equal gates, so the index is relative within each strain
# In short: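 Tiled 17-residue peptides from yeast proteins were fused downstream of GFP on a plasmid that also expresses Cherry, and the pooled library was carried in yeast. Mid-log cultures grown in leucine-free medium were sorted into four equal gates by GFP/Cherry fluorescence ratio. Plasmids from each gate were PCR-amplified and Illumina-sequenced, and reads were assigned to strains by barcodes. Each peptide's protein stability index is the sum, over gates, of the gate's read frequency multiplied by its gate number.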
Sequence,protein stability index (doa10∆),protein stability index (pdr5∆),protein stability index (san1∆),protein stability index (ubr1∆)
ELAAKEEPAKEEAPAPT [FAS2],3.08 ± 0.2,3.24 ± 0.14,,
SLSIEENIPVALCKNRK [POP1],2.76 ± 0.07,2.98 ± 0.1,2.75 ± 0.18,2.95 ± 0.1
NNTKAGRRKTWKRQNTL [RPL15A],2.65 ± 0.059,2.95 ± 0.07,2.44 ± 0.083,2.87 ± 0.12
CRSCPYEFPIEGIEIYD [RPC11],1.73 ± 0.078,2.32 ± 0.11,1.85 ± 0.11,2.08 ± 0.093
SLRSNVVVAETSPEKKD [YAR002W/NUP60],2.23 ± 0.05,2.63 ± 0.063,2.21 ± 0.069,2.4 ± 0.061
IGDYILKSPVLSKLCVP [QCR7],1.55 ± 0.061,1.36 ± 0.078,1.56 ± 0.11,1.69 ± 0.058
EYTINLHKRLHGVSFKK [RPL31A],2.24 ± 0.093,2.19 ± 0.088,2.14 ± 0.11,1.61 ± 0.061
APTRELVQQIQKETQKV [PRP28],2.8 ± 0.087,3.14 ± 0.078,2.95 ± 0.06,3.14 ± 0.065
ERYFDCCTKFFTMMTSE [PCI8],2.38 ± 0.059,2.44 ± 0.071,2.35 ± 0.07,2.29 ± 0.045
NQNQRNVNETMSRSLAN [SMC3],3.11 ± 0.12,2.65 ± 0.12,3.15 ± 0.059,2.86 ± 0.077
SSNIAGTNPLSSDGAYT [SSN2],3.04 ± 0.13,2.73 ± 0.17,3.03 ± 0.062,3.33 ± 0.12
PTQITQYTQRLSKLEKA [SRP68],1.75 ± 0.06,2.08 ± 0.045,2.06 ± 0.079,2.48 ± 0.045
MINGVYYNEISRDLDIS [POP6],2.09 ± 0.26,1.21 ± 0.14,,1.76 ± 0.12
SNFADSADYEILYEIRA [YDL116W/NUP84],1.83 ± 0.081,1.61 ± 0.097,2.42 ± 0.19,1.71 ± 0.099
TALALKYLIKYNVFRQH [CSI1],1.63 ± 0.06,1.8 ± 0.049,1.7 ± 0.11,1.86 ± 0.053
KKALKVRTSATFRLPKT [RPL25],2.87 ± 0.13,,,3.18 ± 0.13
SRGINKGHKFNNTKAGR [RPL15A],3.28 ± 0.29,3 ± 0.2,,3.4 ± 0.17
LGNHAITIDSVVDANGC [YMR129W/POM152],2.42 ± 0.096,1.95 ± 0.08,2.56 ± 0.07,2.79 ± 0.085
KIVFILDSDSENDLSFA [RRI2],2.52 ± 0.059,2.61 ± 0.059,2.09 ± 0.12,2.59 ± 0.047
MNVSTSTFQTRRRRLKK [RPB4],3.39 ± 0.2,3.43 ± 0.13,,3.38 ± 0.14
AAAVSGNNASDEPSRKK [SSN3],2.68 ± 0.13,3.05 ± 0.11,2.78 ± 0.14,3.05 ± 0.11
NELLEMVGLASGNDSMA [BRR2],2.59 ± 0.094,2.1 ± 0.072,3.11 ± 0.077,2.32 ± 0.057
MAHFKEYQVIGRRLPTE [RPL20A],2.21 ± 0.071,2.07 ± 0.061,1.4 ± 0.1,2.4 ± 0.047
IDMDKLNTVLIADLDTE [RRP43],2.66 ± 0.099,3.02 ± 0.07,2.83 ± 0.066,3.22 ± 0.057
EHSQVEQTCVKLLDSGC [SRP72],3.15 ± 0.068,3.38 ± 0.083,3.11 ± 0.085,3.34 ± 0.063
IMDNFLERTAIELKTDW [RPN1],3 ± 0.2,2.99 ± 0.18,3.07 ± 0.12,2.56 ± 0.15
KVIKVLGRTGSRGGVTQ [RPS28A],3.02 ± 0.073,3.04 ± 0.058,2.73 ± 0.085,3.12 ± 0.083

Sequence,protein stability index (doa10∆),protein stability index (pdr5∆),protein stability index (san1∆),protein stability index (ubr1∆)
LSLGEAFKKIDAITVKD [COR1],3.39 ± 0.29,,,3.71 ± 0.19
GIVLEKLGIESKQPNSA [RPS23A],2.05 ± 0.071,2.11 ± 0.072,1.92 ± 0.11,2.38 ± 0.1
TDKVSLSQPVSASKHEY [SIR4],2.29 ± 0.079,2.53 ± 0.057,2.24 ± 0.082,1.95 ± 0.041
EQDALFITRLAQGLLHL [RPN1],2.88 ± 0.1,2.69 ± 0.12,2.38 ± 0.14,2.29 ± 0.14
YIYSHVNKVPQNVAGDK [SWP82],2.79 ± 0.17,2.93 ± 0.079,2.96 ± 0.08,2.97 ± 0.071
KDKGVYVVTSDEHPKTL [SIR2],2.78 ± 0.076,3.24 ± 0.075,3.25 ± 0.055,2.98 ± 0.079
IGTNDLFQVESAPKISS [SIR4],2.42 ± 0.049,2.9 ± 0.047,2.63 ± 0.047,2.43 ± 0.035
YFWHKIWRKVPGDVLDK [SNU114],1.15 ± 0.095,1.08 ± 0.064,1.51 ± 0.23,1.22 ± 0.094
LQIHSRKMTTDDDINWQ [RPT5],3.09 ± 0.14,3.12 ± 0.093,2.93 ± 0.12,3.06 ± 0.063
SNQAVGQTWNFPEVFQV [SRB8],3.11 ± 0.21,3.36 ± 0.2,3.11 ± 0.14,
NFNKFFKIWHGEINKIC [PCI8],1.24 ± 0.049,1.13 ± 0.046,1.15 ± 0.079,1.14 ± 0.059
IGQAVQPKRNLSRYVKW [RPL8A],2.69 ± 0.065,2.97 ± 0.043,2.72 ± 0.047,2.66 ± 0.047
IGDTIADGPTMREITET [RPO21],3.48 ± 0.11,3.52 ± 0.092,3.52 ± 0.045,3.39 ± 0.059
PRSDDLEATWNFIEPGI [CDC53],3.04 ± 0.15,3.29 ± 0.13,3.15 ± 0.096,3.02 ± 0.11
IQQLHSVLNPFLLRRVK [ISW2],2.06 ± 0.061,1.99 ± 0.05,2.2 ± 0.059,2.37 ± 0.041
LIKKPLTVFYAIKKFKT [SSN3],1.51 ± 0.11,1.56 ± 0.048,1.77 ± 0.091,1.42 ± 0.075
HEFKLIVGKKIQEFLVV [GRR1],2.73 ± 0.046,2.09 ± 0.062,2.38 ± 0.076,2.4 ± 0.059
SFTNYITRSFKEPRLVI [RPS0A],2.74 ± 0.09,2.79 ± 0.068,2.55 ± 0.068,2.83 ± 0.074
VVGLGERVSPTDIEEGM [RPT1],,3.33 ± 0.24,,
NNVDNKYKSGGKFSFSP [SSN2],2.23 ± 0.054,2.37 ± 0.044,2.63 ± 0.064,2.17 ± 0.038
AKCNSLLQLKYFSNKTS [POP5],1.84 ± 0.076,2.09 ± 0.055,1.8 ± 0.1,2.2 ± 0.08
RAGVTHVLSRLSYISAL [RET1],1.47 ± 0.074,1.26 ± 0.068,1.22 ± 0.11,1.23 ± 0.081
LKEERAIEPETFTQLVS [PUP3],2.5 ± 0.057,2.85 ± 0.059,2.94 ± 0.047,2.62 ± 0.04
NKKIYQWNKLTSFDIKR [POP6],2.93 ± 0.074,2.95 ± 0.079,2.18 ± 0.2,3.03 ± 0.083
ESITYQKIMILQRTILN [RGR1],1.61 ± 0.069,1.69 ± 0.06,1.49 ± 0.099,2.06 ± 0.065
GEDSTKPLGPCDVFWVQ [POP1],3.12 ± 0.094,2.97 ± 0.082,3.17 ± 0.072,2.8 ± 0.057
AKKQNYKLTNDEEGIFS [YCG1],3.23 ± 0.098,3.45 ± 0.1,3.15 ± 0.074,3.19 ± 0.075
